Data reported in publication PMC6555819, “Comprehensive study of nuclear receptor DNA binding provides a revised framework for understanding receptor specificity”.

The binders below were run against PPARa:RXRa (Homo sapiens, UniProt Q07869;P19793 full;full) (assay: no ligand; PBM; 270 nM : 90 nM RXRa; PBS pH 7.4, 2% milk, 0.02% Triton X-100, 1 mM DTT, BSA, 0.4 mg/ml salmon testes DNA). Details: tags: GST kept;His cleaved; copies: 1;1; label: surface-attached array probe.
How it was run: (§1)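 Random background probes are the reference for binding z-scores. These scores derive from regression-normalized fluorescence on custom Agilent 4×180K protein-binding microarrays incubated 1 h with ligand-free nuclear receptor dimers. Binding was detected with antibodies against each partner (one per run).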

Sequence of PPARa:RXRa (Q07869 whole entry, chain 1 of 2): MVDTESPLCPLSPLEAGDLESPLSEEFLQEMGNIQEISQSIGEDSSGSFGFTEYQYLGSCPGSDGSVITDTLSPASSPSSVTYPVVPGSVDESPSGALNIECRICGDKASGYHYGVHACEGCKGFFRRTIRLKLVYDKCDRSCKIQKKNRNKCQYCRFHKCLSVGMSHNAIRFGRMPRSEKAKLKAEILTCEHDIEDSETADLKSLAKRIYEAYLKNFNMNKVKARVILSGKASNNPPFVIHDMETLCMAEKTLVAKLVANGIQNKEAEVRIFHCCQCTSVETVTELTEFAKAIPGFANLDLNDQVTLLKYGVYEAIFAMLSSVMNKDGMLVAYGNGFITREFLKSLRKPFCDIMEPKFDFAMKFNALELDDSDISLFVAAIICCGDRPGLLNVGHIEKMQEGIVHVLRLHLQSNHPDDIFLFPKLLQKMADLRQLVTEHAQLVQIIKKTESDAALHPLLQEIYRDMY
Sequence of PPARa:RXRa (P19793 whole entry, chain 2 of 2): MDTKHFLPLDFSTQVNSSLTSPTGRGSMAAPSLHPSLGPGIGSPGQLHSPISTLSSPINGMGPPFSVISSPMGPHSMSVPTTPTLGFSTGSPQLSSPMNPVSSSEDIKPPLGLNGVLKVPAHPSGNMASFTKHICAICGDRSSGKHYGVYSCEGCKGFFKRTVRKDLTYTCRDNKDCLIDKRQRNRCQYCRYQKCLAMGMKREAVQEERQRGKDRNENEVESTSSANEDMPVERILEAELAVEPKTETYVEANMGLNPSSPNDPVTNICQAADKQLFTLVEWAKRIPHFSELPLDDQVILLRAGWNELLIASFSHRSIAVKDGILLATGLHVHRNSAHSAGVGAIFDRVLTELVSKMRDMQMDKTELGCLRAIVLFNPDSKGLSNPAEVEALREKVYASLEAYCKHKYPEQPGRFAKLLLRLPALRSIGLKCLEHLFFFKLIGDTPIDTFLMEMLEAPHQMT

Binder | binding signal
NRC3_wobSeed138_DR5_A8G_o1 (dsDNA) DNA 1: GCGATACGGGGTCAGCTAGAGGCCAGAGTATGGAAAGCGATTGACAGCGTAGAATGAAGG DNA 2: CCTTCATTCTACGCTGTCAATCGCTTTCCATACTCTGGCCTCTAGCTGACCCCGTATCGC | 6.77 PBM z-score against 500 random probes
NRC3_random_hg19_14_o1 (dsDNA) DNA 1: GCGCAGGGACTATGTGCATTAGGCCAGTTCCTCATGGCGATTGACAGCGTAGAATGAAGG DNA 2: CCTTCATTCTACGCTGTCAATCGCCATGAGGAACTGGCCTAATGCACATAGTCCCTGCGC | -1.96 PBM z-score against 500 random probes
NRC3_random_hg19_270_o1 (dsDNA) DNA 1: GCTATAGGAAGCAGGATGTTTCTTGAGAGTGTGGCCGCGATTGACAGCGTAGAATGAAGG DNA 2: CCTTCATTCTACGCTGTCAATCGCGGCCACACTCTCAAGAAACATCCTGCTTCCTATAGC | -0.83 PBM z-score against 500 random probes
NRC3_random_hg19_20_o1 (dsDNA) DNA 1: GCTACACTCTCCCAAGACTAAACCAGGAAGAAGTTGGCGATTGACAGCGTAGAATGAAGG DNA 2: CCTTCATTCTACGCTGTCAATCGCCAACTTCTTCCTGGTTTAGTCTTGGGAGAGTGTAGC | 0.29 PBM z-score against 500 random probes
NRC3_random_hg19_317_o1 (dsDNA) DNA 1: GCGCCTCCTTCTTTCCTTTGTCATCTGGTGGTGGGAGCGATTGACAGCGTAGAATGAAGG DNA 2: CCTTCATTCTACGCTGTCAATCGCTCCCACCACCAGATGACAAAGGAAAGAAGGAGGCGC | -0.11 PBM z-score against 500 random probes
NRC3_random_hg19_31_o1 (dsDNA) DNA 1: GCCAAGAGGACTCGCACAGTGGTGCATGGCAGCTTGGCGATTGACAGCGTAGAATGAAGG DNA 2: CCTTCATTCTACGCTGTCAATCGCCAAGCTGCCATGCACCACTGTGCGAGTCCTCTTGGC | -0.47 PBM z-score against 500 random probes

Each binder was assayed against RARg:RXRa (Homo sapiens, UniProt P13631;P19793 full;full) in the same assay as above. Details: tags: His kept;His cleaved; copies: 1;1; label: surface-attached array probe.
Sequence of RARg:RXRa (P13631 whole entry, chain 1 of 2): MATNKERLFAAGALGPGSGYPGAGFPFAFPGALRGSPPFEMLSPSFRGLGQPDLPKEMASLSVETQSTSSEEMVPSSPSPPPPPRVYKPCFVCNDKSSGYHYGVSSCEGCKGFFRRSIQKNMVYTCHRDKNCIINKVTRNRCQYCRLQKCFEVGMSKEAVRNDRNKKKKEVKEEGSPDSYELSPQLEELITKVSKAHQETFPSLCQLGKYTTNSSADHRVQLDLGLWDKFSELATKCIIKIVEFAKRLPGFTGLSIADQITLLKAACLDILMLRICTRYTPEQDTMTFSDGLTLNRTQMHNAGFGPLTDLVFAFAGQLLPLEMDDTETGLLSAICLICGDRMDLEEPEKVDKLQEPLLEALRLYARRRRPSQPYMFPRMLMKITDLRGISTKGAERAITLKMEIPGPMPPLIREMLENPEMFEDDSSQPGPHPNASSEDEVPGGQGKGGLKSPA
Sequence of RARg:RXRa (P19793 whole entry, chain 2 of 2): as the sequence (P19793 whole entry, chain 2 of 2) above
How it was run: as §1

Binder | binding signal
NRC3_wobSeed138_DR5_A8G_o1 (dsDNA) DNA 1: GCGATACGGGGTCAGCTAGAGGCCAGAGTATGGAAAGCGATTGACAGCGTAGAATGAAGG DNA 2: CCTTCATTCTACGCTGTCAATCGCTTTCCATACTCTGGCCTCTAGCTGACCCCGTATCGC | 7.98 PBM z-score against 500 random probes
NRC3_random_hg19_218_o1 (dsDNA) DNA 1: GCTTAGTCATGAAGTCTTTGCCCATGCCTGTGTCCTGCGATTGACAGCGTAGAATGAAGG DNA 2: CCTTCATTCTACGCTGTCAATCGCAGGACACAGGCATGGGCAAAGACTTCATGACTAAGC | -0.54 PBM z-score against 500 random probes
NRC3_random_hg19_253_o1 (dsDNA) DNA 1: GCTAGCCCTCTCAGAGGACAGAGCTAGGATAGCATGGCGATTGACAGCGTAGAATGAAGG DNA 2: CCTTCATTCTACGCTGTCAATCGCCATGCTATCCTAGCTCTGTCCTCTGAGAGGGCTAGC | -0.23 PBM z-score against 500 random probes
NRC3_random_hg19_14_o1 (dsDNA) DNA 1: GCGCAGGGACTATGTGCATTAGGCCAGTTCCTCATGGCGATTGACAGCGTAGAATGAAGG DNA 2: CCTTCATTCTACGCTGTCAATCGCCATGAGGAACTGGCCTAATGCACATAGTCCCTGCGC | -0.69 PBM z-score against 500 random probes
NRC3_random_hg19_270_o1 (dsDNA) DNA 1: GCTATAGGAAGCAGGATGTTTCTTGAGAGTGTGGCCGCGATTGACAGCGTAGAATGAAGG DNA 2: CCTTCATTCTACGCTGTCAATCGCGGCCACACTCTCAAGAAACATCCTGCTTCCTATAGC | -0.4 PBM z-score against 500 random probes
NRC3_random_hg19_231_o1 (dsDNA) DNA 1: GCATTACAAAGGTGCTGGAAAGGCTTGGGAGGAGCAGCGATTGACAGCGTAGAATGAAGG DNA 2: CCTTCATTCTACGCTGTCAATCGCTGCTCCTCCCAAGCCTTTCCAGCACCTTTGTAATGC | -0.04 PBM z-score against 500 random probes
NRC3_random_hg19_20_o1 (dsDNA) DNA 1: GCTACACTCTCCCAAGACTAAACCAGGAAGAAGTTGGCGATTGACAGCGTAGAATGAAGG DNA 2: CCTTCATTCTACGCTGTCAATCGCCAACTTCTTCCTGGTTTAGTCTTGGGAGAGTGTAGC | 0.15 PBM z-score against 500 random probes
NRC3_random_hg19_416_o1 (dsDNA) DNA 1: GCCCTAGTTGGACCTGTGGGAAGGGCACTACTGTTCGCGATTGACAGCGTAGAATGAAGG DNA 2: CCTTCATTCTACGCTGTCAATCGCGAACAGTAGTGCCCTTCCCACAGGTCCAACTAGGGC | -0.27 PBM z-score against 500 random probes
NRC3_random_hg19_317_o1 (dsDNA) DNA 1: GCGCCTCCTTCTTTCCTTTGTCATCTGGTGGTGGGAGCGATTGACAGCGTAGAATGAAGG DNA 2: CCTTCATTCTACGCTGTCAATCGCTCCCACCACCAGATGACAAAGGAAAGAAGGAGGCGC | -1.07 PBM z-score against 500 random probes
NRC3_random_hg19_175_o1 (dsDNA) DNA 1: GCGAGGAAGCTAAGCACTGCAAGGAAGAGGGTCAGAGCGATTGACAGCGTAGAATGAAGG DNA 2: CCTTCATTCTACGCTGTCAATCGCTCTGACCCTCTTCCTTGCAGTGCTTAGCTTCCTCGC | -0.07 PBM z-score against 500 random probes
NRC3_random_hg19_31_o1 (dsDNA) DNA 1: GCCAAGAGGACTCGCACAGTGGTGCATGGCAGCTTGGCGATTGACAGCGTAGAATGAAGG DNA 2: CCTTCATTCTACGCTGTCAATCGCCAAGCTGCCATGCACCACTGTGCGAGTCCTCTTGGC | -0.25 PBM z-score against 500 random probes

The binders below were run against FXR:RXRa (Homo sapiens, UniProt Q96RI1;P19793 full;full) in the same assay as above. Details: tags: His kept;His cleaved; copies: 1;1; label: surface-attached array probe.
Sequence of FXR:RXRa (Q96RI1 whole entry, chain 1 of 2): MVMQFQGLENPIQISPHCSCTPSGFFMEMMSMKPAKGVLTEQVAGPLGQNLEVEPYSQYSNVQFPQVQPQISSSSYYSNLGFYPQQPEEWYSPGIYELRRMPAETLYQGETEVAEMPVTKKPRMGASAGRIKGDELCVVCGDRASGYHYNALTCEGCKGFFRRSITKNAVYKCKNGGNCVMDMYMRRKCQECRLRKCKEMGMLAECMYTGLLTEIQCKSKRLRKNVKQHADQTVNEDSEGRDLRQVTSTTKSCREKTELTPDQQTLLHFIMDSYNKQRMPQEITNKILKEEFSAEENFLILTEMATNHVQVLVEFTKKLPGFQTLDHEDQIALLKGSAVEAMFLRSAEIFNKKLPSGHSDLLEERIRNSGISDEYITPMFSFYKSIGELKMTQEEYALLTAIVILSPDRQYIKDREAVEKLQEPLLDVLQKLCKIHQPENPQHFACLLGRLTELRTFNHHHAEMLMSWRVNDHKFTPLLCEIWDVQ
Sequence of FXR:RXRa (P19793 whole entry, chain 2 of 2): as the sequence (P19793 whole entry, chain 2 of 2) above
How it was run: as §1

Binder | binding signal
NRC3_wobSeed141_DR5_G10C_o1 (dsDNA) DNA 1: GCAGTCAAACTTCAGGACGAGGTAACGTAAAGCACGGCGATTGACAGCGTAGAATGAAGG DNA 2: CCTTCATTCTACGCTGTCAATCGCCGTGCTTTACGTTACCTCGTCCTGAAGTTTGACTGC | 0.23 PBM z-score against 500 random probes
NRC3_wobSeed15_DR0_A14G_o1 (dsDNA) DNA 1: GCCGAACTAGGTCGAGGACAGTGAATCTCCGCACGCGCGATTGACAGCGTAGAATGAAGG DNA 2: CCTTCATTCTACGCTGTCAATCGCGCGTGCGGAGATTCACTGTCCTCGACCTAGTTCGGC | 0.21 PBM z-score against 500 random probes
NRC3_wobSeed66_DR2_C13A_o1 (dsDNA) DNA 1: GCAATACAGGGTAACTAGGCCAGAGTAGGTACGAATGCGATTGACAGCGTAGAATGAAGG DNA 2: CCTTCATTCTACGCTGTCAATCGCATTCGTACCTACTCTGGCCTAGTTACCCTGTATTGC | -0.01 PBM z-score against 500 random probes
NRC3_wobSeed45_DR1_A9C_o1 (dsDNA) DNA 1: GCTGTCAACGTTCAAAGGTAACGTAAGTATCCACACGCGATTGACAGCGTAGAATGAAGG DNA 2: CCTTCATTCTACGCTGTCAATCGCGTGTGGATACTTACGTTACCTTTGAACGTTGACAGC | 0.46 PBM z-score against 500 random probes
NRC3_wobSeed138_DR5_A14G_o1 (dsDNA) DNA 1: GCGATACAGGGTCGGCTAGAGGCCAGAGTATGGAAAGCGATTGACAGCGTAGAATGAAGG DNA 2: CCTTCATTCTACGCTGTCAATCGCTTTCCATACTCTGGCCTCTAGCCGACCCTGTATCGC | 0.37 PBM z-score against 500 random probes
NRC3_wobSeed90_DR3_A14G_o1 (dsDNA) DNA 1: GCCATACAGGGTCGGCTAGGCCAGAGTAGGGACGGCGCGATTGACAGCGTAGAATGAAGG DNA 2: CCTTCATTCTACGCTGTCAATCGCGCCGTCCCTACTCTGGCCTAGCCGACCCTGTATGGC | 0.13 PBM z-score against 500 random probes
NRC3_wobSeed41_DR1_G17C_o1 (dsDNA) DNA 1: GCATATGTAGGTTAAGCGTCATTCAGGTTGGTTCGCGCGATTGACAGCGTAGAATGAAGG DNA 2: CCTTCATTCTACGCTGTCAATCGCGCGAACCAACCTGAATGACGCTTAACCTACATATGC | 0.45 PBM z-score against 500 random probes
NRC3_wobSeed46_DR1_A16C_o1 (dsDNA) DNA 1: GCTTACCAAGGTGAACGGTCGTTGATGCACGCCTTGGCGATTGACAGCGTAGAATGAAGG DNA 2: CCTTCATTCTACGCTGTCAATCGCCAAGGCGTGCATCAACGACCGTTCACCTTGGTAAGC | 0.48 PBM z-score against 500 random probes
NRC3_wobSeed87_DR3_A14G_o1 (dsDNA) DNA 1: GCCGAACTAGGTCGTCCAGGACAGTGAATACATTGAGCGATTGACAGCGTAGAATGAAGG DNA 2: CCTTCATTCTACGCTGTCAATCGCTCAATGTATTCACTGTCCTGGACGACCTAGTTCGGC | 0.36 PBM z-score against 500 random probes
NRC3_wobSeed87_DR3_G10C_o1 (dsDNA) DNA 1: GCCGAACTACGTCATCCAGGACAGTGAATACATTGAGCGATTGACAGCGTAGAATGAAGG DNA 2: CCTTCATTCTACGCTGTCAATCGCTCAATGTATTCACTGTCCTGGATGACGTAGTTCGGC | 0.27 PBM z-score against 500 random probes
NRC3_wobSeed39_DR1_A14T_o1 (dsDNA) DNA 1: GCCGAACTAGGTCTAAGGACAGTGAAAGGCGACGTAGCGATTGACAGCGTAGAATGAAGG DNA 2: CCTTCATTCTACGCTGTCAATCGCTACGTCGCCTTTCACTGTCCTTAGACCTAGTTCGGC | 0.18 PBM z-score against 500 random probes
NRC3_wobSeed21_DR0_T12C_o1 (dsDNA) DNA 1: GCCGTCAAAGTCCAAGGTAACGTAACAGAAAGCAGCGCGATTGACAGCGTAGAATGAAGG DNA 2: CCTTCATTCTACGCTGTCAATCGCGCTGCTTTCTGTTACGTTACCTTGGACTTTGACGGC | 0.2 PBM z-score against 500 random probes
NRC3_wobSeed21_DR0_T11A_o1 (dsDNA) DNA 1: GCCGTCAAAGATCAAGGTAACGTAACAGAAAGCAGCGCGATTGACAGCGTAGAATGAAGG DNA 2: CCTTCATTCTACGCTGTCAATCGCGCTGCTTTCTGTTACGTTACCTTGATCTTTGACGGC | 0.1 PBM z-score against 500 random probes
NRC3_wobSeed82_DR3_G14C_o1 (dsDNA) DNA 1: GCATCGAAAGGTCCACGAGGTGAGTATACACCGTTTGCGATTGACAGCGTAGAATGAAGG DNA 2: CCTTCATTCTACGCTGTCAATCGCAAACGGTGTATACTCACCTCGTGGACCTTTCGATGC | 0.48 PBM z-score against 500 random probes
NRC3_wobSeed63_DR2_A14G_o1 (dsDNA) DNA 1: GCCGAACTAGGTCGCCAGGACAGTGAAGAGGTTGGAGCGATTGACAGCGTAGAATGAAGG DNA 2: CCTTCATTCTACGCTGTCAATCGCTCCAACCTCTTCACTGTCCTGGCGACCTAGTTCGGC | 0.16 PBM z-score against 500 random probes
NRC3_wobSeed93_DR3_C13T_o1 (dsDNA) DNA 1: GCAGTCAAAGTTTATCTAGGTAACGTAAGATATGCTGCGATTGACAGCGTAGAATGAAGG DNA 2: CCTTCATTCTACGCTGTCAATCGCAGCATATCTTACGTTACCTAGATAAACTTTGACTGC | 0.4 PBM z-score against 500 random probes
NRC3_wobSeed93_DR3_T12G_o1 (dsDNA) DNA 1: GCAGTCAAAGTGCATCTAGGTAACGTAAGATATGCTGCGATTGACAGCGTAGAATGAAGG DNA 2: CCTTCATTCTACGCTGTCAATCGCAGCATATCTTACGTTACCTAGATGCACTTTGACTGC | 0.12 PBM z-score against 500 random probes
NRC3_wobSeed101_DR4_A14C_o1 (dsDNA) DNA 1: GCCCTTACGGGTCCCTCCAGGTTATAGCATCGGAGTGCGATTGACAGCGTAGAATGAAGG DNA 2: CCTTCATTCTACGCTGTCAATCGCACTCCGATGCTATAACCTGGAGGGACCCGTAAGGGC | 0.32 PBM z-score against 500 random probes
NRC3_wobSeed122_DR5_G21T_o1 (dsDNA) DNA 1: GCGCTAGTTGGTCAGTAAAATGTCACACACCGGTCGGCGATTGACAGCGTAGAATGAAGG DNA 2: CCTTCATTCTACGCTGTCAATCGCCGACCGGTGTGTGACATTTTACTGACCAACTAGCGC | 0.1 PBM z-score against 500 random probes
